Measurements taken from patent publication US20230079150A1, “METHODS FOR PREVENTION OR TREATMENT OF VIRUS-INDUCED ORGAN INJURY OR FAILURE WITH IL-22 DIMER” (priority 2020, published 2023).

What was measured:
[1] = tested on: Human umbilical vein endothelial cells (HUVEC); test: Glycocalyx quantification (WGA staining) in HUVECs with or without LPS; type: cell-based
Experimental: Human umbilical vein endothelial cells (HUVEC) were purchased from the American Type Culture Collection. Cells were initially grown in 2% gelatin-coated 10-cm plastic dishes using M200 medium supplemented with low serum growth supplement (LSGS) and penicillin/streptomycin in a cell culture incubator at 37° C. with 5% CO2 atmosphere. Cells were passaged by digestion in 0.25% trypsin in Hanks' Balanced Salt Solution (HBSS) after reaching 80% confluence. Cells were used for experiments between passages 1-3. For glycocalyx quantification, HUVECs were plated in 48-well plastic cell culture plates coated with 2% gelatin, at a confluence of approximately 80%. M200+LSGS+penicillin/streptomycin was supplemented with 1% bovine serum albumin (BSA) to support glycocalyx growth. Cells were cultured for 24 hours to allow glycocalyx development before LPS exposure.
After completion of the LPS exposure with or without F-652, HUVECs were fixed by addition of concentrated formaldehyde solution directly to the culture medium to yield a final formaldehyde concentration of 3.5%. […] Glycocalyx and nuclei (4′,6-diamidino-2-phenylindole) were imaged on an EVOS fluorescence microscope under identical conditions. […] ImageJ software was used to quantify glycocalyx fluorescence intensity overlaying the nuclei of each visible cell.

IL-22Ra1 = IL-22Ra1 receptor immunofluorescence in HUVECs; type: cell-based, human
Experimental: HUVECs were fixed in 3.5% formaldehyde in PBS for 10 minutes. Cells were then blocked in 1% BSA in PBS for one hour. Cells were then incubated overnight in primary antibody for IL-22Ra1 (Invitrogen, Carlsbad, Calif.) diluted 1:100 in 1% BSA in PBS. Cells were then washed with PBS 3 times. Cells were incubated with secondary antibody, goat anti-mouse Alexa Fluor 488 (1:500; Invitrogen, A28175) diluted 1:500 in 1% BSA in PBS along with 0.1 μg/ml of 4,6 diamidino-2phylindole (DAPI) (Sigma) for one hour, followed by three washes in PBS. Cells were then cover slipped with Fluoro Gel mounting medium and imaged on an EVOS fluorescence microscope. Fluorescence intensity was quantified using ImageJ.

C57BL/6 mice = test: LPS acute lung injury mouse model: endothelial glycocalyx intensity in alveolar capillaries; type: in vivo
Experimental: (§1) After approval from the Tulane University, Institutional Animal Care and Use Committee (protocol ID 607), equal numbers of male and female, 6-8 week old C57BL/6 mice (Charles River Laboratories, Cambridge, Mass.) were given acute lung injury (ALI) via intra-tracheally administered LPS. After obtaining appropriate depth of anesthesia using isoflurane, the high-dose LPS group (HDG) received 100 μg of LPS administered intra-tracheally. Approximately 30 minutes after LPS administration, 4 μg of F-652 was administered via tail vein injection (n=11), then compared to animals receiving sham injection (n=8) with phosphate-buffered saline (PBS). In the low-dose LPS group (LDG), 33.3 μg of LPS was administered intra-tracheally. F-652 was again administered at 30 minutes (n=9) and compared to sham injected animals (n=9). […]
Paraformaldehyde-fixed lung segments were flash-frozen in Optimal Cutting Temperature (O.C.T) compound (Sakura) and sectioned on a cryostat. […] Glycocalyx and nuclei (4′,6-diamidino-2-phenylindole) were imaged on an Olympus BX51 fluorescence microscope under identical conditions. ImageJ software was used to quantify glycocalyx fluorescence intensity in the alveolar capillaries from a minimum of 20 regions of interest from 3 mice per condition.

[2] = LPS acute lung injury mouse model: human IL-22 ELISA in BAL; type: in vivo, mice; details: high-dose LPS; F-652 4 μg tail vein; day 4; sham non-detectable
Experimental: as §1
The BAL fluid was then centrifuged at 500×gravity for 5 minutes. […] To quantify protein in the BAL supernatant, a Bradford protein assay (Bio-Rad Laboratories) was performed. Protein was quantified by measuring absorbance at 595 nm on a BMG Labtech FLUOstar Optima plate reader. […] Human IL-22 was measured using an IL-22 Human ELISA kit (ThermoFisher Scientific). Mouse IL-22 was measured using an IL-22 Mouse/Rat Quantikine ELISA kit (R&D Systems).

[3] = tested on: H1N1 influenza (A/PR8 strain); type: in vivo, C57BL/6 mice; details: both aged and young H1N1-infected mice
STAT3 = details: F-652 alone compared to control HUVECs
Experimental: To investigate the effects of F-652 on EGX, cultured HUVECs were exposed to either untreated media, 1 μg/mL of LPS, 1 μg/mL of LPS and 0.375 μg/mL of F-652, or 0.375 μg/mL of F-652 alone, for a total of 24 hours.
HUVECs were lysed in lysis buffer (50 mM Tris-HCl pH 7.5, 150 mM NaCl, 0.5 M EDTA, 1% Triton X-100, and Halt™ protease inhibitor cocktail). Proteins were quantified using Bio-Rad protein quantification assay (Bio-Rad Laboratories), and 20-50 μg of protein was separated by SDS-polyacrylamide gel electrophoresis (SDS-PAGE) on a 4-12% gradient acrylamide gel run at 100 V. Proteins were then transferred to 0.45 m PVDF membrane at 30 V for 2 hours. Membranes were blocked in Tris Buffered Saline (TBS: 137 mM NaCl, 20 mM Tris Base), 0.1% Tween 20, and 5% bovine serum albumin (blocking solution) for 1 hour, followed by overnight incubation with primary antibody diluted in TBS, 0.1% Tween 20, and 3% BSA, and 1 hour incubation with horseradish peroxidase-conjugated secondary antibody diluted at 1:5,000. […] Immunoreactive protein was detected using ECL (GE Healthcare) imaged on a Bio-Rad ChemiDoc™ MP Imaging System.

B1: F-652: recombinant IL-22 dimer consisting of two monomeric subunits each comprising a sequence shown in SEQ ID NO: 24 (protein)
chain 1: APISSHCRLDKSNFQQPYITNRTFMLAKEASLADNNTDVRLIGEKLFHGVSMSERCYLMKQVLNFTLEEVLFPQSDRFQPYMQEVVPFLARLSNRLSTCHIEGDDLHIQRNVQKLKDTVKKLGESGEIKAIGELDLLFMSLRNACIGSGGGSGGGGSGGGGSVECPPCPAPPVAGPSVFLFPPKPKDTLMISRTPEVTCVVVDVSHEDPEVQFNWYVDGVEVHNAKTKPREEQFNSTFRVVSVLTVVHQDWLNGKEYKCKVSNKGLPASIEKTISKTKGQPREPQVYTLPPSREEMTKNQVSLTCLVKGFYPSDIAVEWESNGQPENNYKTTPPMLDSDGSFFLYSKLTVDKSRWQQGNVFSCSVMHEALHNHYTQKSLSLSPGK
chain 2: B1 chain 1
modifications: homodimer
In the case of B1, the glycocalyx staining intensity ([1]; 0.375 μg/mL F-652 alone, 24 hours, control 6.09) is reported as 5.08 AU, the glycocalyx staining intensity ([1]; 1 μg/mL LPS and 0.375 μg/mL F-652, 24 hours, control 6.09, LPS 5.10) is reported as 5.86 AU and the “IL-22Ra1 receptor expression compared to control” value (IL-22Ra1; F-652 alone) is reported as “did not result in a difference”. The “IL-22Ra1 receptor relative expression” value (IL-22Ra1; LPS and F-652, control 1.00) was 0.69 RE, the “endothelial glycocalyx intensity, F-652 treated vs sham” value (C57BL/6 mice; high dose LPS injury) was “no significant difference” and the “endothelial glycocalyx intensity in alveolar capillaries” value (C57BL/6 mice; low dose LPS injury, sham 63.7) was 80.0 Arbitrary Units. For the same molecule, the “human IL-22 level in BAL” value [2] was 27.41 pg/mL, the “hydroxyproline content of right lung lobes compared to PBS control” value [3] was “significantly reduced” and the “ratio of phosphorylated STAT3 to total STAT3” value (STAT3) was “significantly higher”.
